Reference: the DeepSol protein solubility set

Assay: soluble on expression in E. coli; label from the status in PepcDB or PDB records

**Q.** For “MNQEVTAPKEMNQGASNDLLTTSLKNVTRLNTNDPSQMAVLTSQTIWAATHKENQPGAVILVPASEWQLGIASADFIHHPNNGPILFIEKEKIPEMTLKEIKRLNPIGTKDGTQIMVMGDVGTSALEQLKGYKVKQIKETDPAIFAKDVDKEYADITGSYPNSVIIGSSAEEGRLYTTPAVNWISHMPEPLLYTEKNKVPEATIEALKMRKDKANIYVLGPEKIVSKEVEKELSKYGKVTRISGETPTENSIAFAKFKDEKTKFGWGFTKPGHGLSFVSSKTPDLAVAGAPFSHMGKHAPVVLLEEGKASQTVYDFLASIQPKFKDDPTLGPYNHGFLLGNTSDISFETQGILDERLEIVQESGQGHGGH”, which “soluble on expression in E. coli” value is on record?
**A.** not soluble

**Q.** For “MKIADGVYVHFIPTQKYKTNRIVFRMTGSLNKQTIAKRALVSQMLATANQTYPTVQSFKERLASLYGTQLSTKVSTKGLTHSVDIELTYLKDFFIPMNTSLFWEVLGFLMDCLYNPLSIVAQYQNKVFDIEKQNLMTYLDVDTENNYYYSEVQGRELYFVNEALKVPKYGRVELVEAETSFTAYQEFQSMLTKDRIDIFMVGEFDDYQVLRGLHRFPLEGRQVDLQFSYNQSYSKVVKEKIETRQTSQSILQLGYQFPCQYGDKDYFALIVFNGMLGEFAHSALFTKIREKEGLAYSIGSQFDAFTGLLEIYAGIEKSNRNQAMRGIIRELNHIKLGRFSSSLFNQTKKIIRMNALLSEDHALTLVEQHFNKVIFGDKKISLEDWLDKIEKVTKKDVCRIARQVKLQSLFFLEGVS”, which “soluble on expression in E. coli” value is on record?
**A.** not soluble

**Q.** For “MGGGKYETQMCVIIIEDIFGKIVAKVMETILKESCQLSTLFYKLKGQISNTLIRKSVSTLINFGFVTFHLDTNNRTTYVADSDQIQHVISSPRACLIAKTLYGPAAESICVELISQGRLTVSETIRRIQATDETAVFSDIKKSFEELAAAHFLIRVPSVESEIHGCPQFVTNFDPFAISTNIMEKKEGTSTSDSTSNNRKRKADSTPEDGDAGQYWRINWIRFNGYLRDELIIDYLIGGGSKGTMTNLNVKKEETIEDPQGDRTQYITQNVAHLMFKINETRAKPMSMESITASLTDLQRLVKENGLNLAKPDIELACQILVDESDGIIRKLGESNGGIFIVDIRRAIRQICRHHCESLIREQFEGRAIRVMRLLENRHYLDEEQVEKLSMMSGKEAREMLYALVEEGYVFNKPVGRSNDFQPARTFYLYYVDLPRTIRGLVEYTCKLVRNLIVRQRHERTENKSVLDKDANVQPIIENIRSSEQLDEASKLAQIAEVEEMYLPGPDRAQLNRFRKAQATLLAAQDQSIRVLLSFKLFLASGEN”, which “soluble on expression in E. coli” value is on record?
**A.** not soluble

**Q.** Which “soluble on expression in E. coli” value does the source give for “GMMFKWPWKADDESGNAEMPWEQALAIPVLAHLSSTEQHKLTQMAARFLQQKRLVALQGLELTPLHQARIAMLFCLPVLELGIEWLDGFHEVLIYPAPFIVDDEWEDDIGLVHNQRVVQSGQSWQQGPVVLNWLDIQDSFDASGFNLVVHEVAHKLDTRNGDRASGVPLIPLREVAGWEHDLHAAMNNIQDEIDLVGESAASIDAYAATDPAECFAVLSEYFFSAPELFAPRFPALWQRFCHFYRQDPLARRRENGLQDEGDRRIVH” here?
**A.** soluble

**Q.** With “MGIHRLWKRFTIDCSGVRRGQTVLDLAGGTGDLTAKFSRLVGETGKVVLADINESMLKMGREKLRNIGVIGNVEYVQANAEALPFPDNTFDCITISFGLRNVTDKDKALRSMYRVLKPGGRLLVLEFSKPIIEPLSKAYDAYSFHVLPRIGSLVANDADSYRYLAESIRMHPDQDTLKAMMQDAGFESVDYYNLTAGVVALHRGYKLEHHHHHH” as the sequence, how does the “soluble on expression in E. coli” value read?
**A.** not soluble

**Q.** For “GPGSMPTRSHGDEEYYRQSRYKPVSIEDTPMFWKERADKCYGTQQWKAAANAYSESIKRDGAFLTCVMNRSACYLQMADYKRAIEDCSLALTMLANTPASEVTQERYRGLMTKLHARRGAAYCWADDLKSGAADLRMAAAYRDPTSDDDVAADLAMIEAQMKERGITEVDACVDPLSTRMQEAAAQYYQGSYEAAEATYSAILKEQPFHMKAQGNLAATLLRAGKFTQALQVCDGIVQFCSEAAAALEQPGGLAGDQLDSDDEEDEDEPDWAASSTESAPEEVEGASNKDTLVRQRRAAAKTLGEQSGHVYMLLKAYVRSAAALCGMKEYHKAHGYLERAMRITPYDNDLREDCNRLAEKIRMDTLITASAGSARTQKAAV”, which “soluble on expression in E. coli” value is on record?
**A.** soluble

**Q.** With “SEKMKLLYVYDPLCGWCYGFGPVVEKIEKNYKGTVDVEIISGGMVMGNRIAPIGNMSEYILDAIPRLQRMTGIEFGQPYITLLKEGSYVTSSEKPSIALCVYKSFTAERAVEYGHAIQTSFYKEGKDLNQDVLYADLATSYGIDRAAFLKRMKDSVYFNQAHEEFKRAAALGVTGFPTLLLKQENGYTALTEGYATYESIEKQLQKHVKAAGTK” as the sequence, how does the “soluble on expression in E. coli” value read?
**A.** not soluble

**Q.** Which “soluble on expression in E. coli” value does the source give for “MEKVHYAAIDVGSNAVRLLIKCVNSEGMEEPLSKVLIMRVPIRLGEDSFTKGYIGEEKTDNMVRLMRAYYEMMQIYRVKDYRACATSAMRDASNAEAVIAQIREKTGIHIDIIDGDEEARLVSDNHIEQIISDGGNYIYLDVGGGSTELTIPAAEIFLEVADITGAKTIIAPIVGLADGIIEDLYIRHQSQPSLEHHHHHH” here?
**A.** soluble

**Q.** With “MSLQLDEYLRQLAPSMTQWRRDFHLHAESGWLEFRTASKVADILDGLGYQLALGRDVIDADSRMGLPDEETLARAFERAREQGAPERWLPAFEGGFAGVVATLDTGRPGPTLAFRVDMDALDLNEQHDDSHRPHRDHFASCNAGMMHACGHDGHTAIGLGLAHVLKQYAAQLNGVIKLIFQPAEEGTRGARAMVAAGVVDDVDYFTAIHIGTGVPAGTVVCGGDNFMATTKFDVQFSGVAAHAGGKPEDGRNALLAAAQAALGLHAIPPHSAGASRVNVGVMQAGTGRNVVPSSALLKVETRGESEAINQYVFERAQHVVAGAAAMYEARYELRMMGAATASAPSPAWVDYLREQAARVPGVQQAVDRIAAPAGSEDATLMMARVQARGGLASYMIFGTELSAGHHNEKFDFDESVMAVAVETLARVALNFPWQRGVEGHHHHHH” as the sequence, how does the “soluble on expression in E. coli” value read?
**A.** soluble

**Q.** With “MAHHHHHHMKLYSLAIVKPYPSGVEKQPVICSQAIDVSSFGFFQRNSAREFIVFLTRTVSNRVAKGVKTQITENGNVVFAHATFDGLVALAISDVEYNSRVAFTLLGDLVQQFQTTFRGKYDLVDGKEDNFLSWPHLTETLEKYQKPEEQDKILKIKRDIEDTKVIMYNAIDQIIERGQKIDDLVAQSEDLGMASKTFYKQAKKTNSGCCTVM” as the sequence, how does the “soluble on expression in E. coli” value read?
**A.** soluble

**Q.** With “MPNVIGVQFQKAGKLEYYTPNDIQVDIDDWVVVESKRGIEIGIVKNPLMDIAEEDVVLPLKNIIRVADDKDIDKFNCNERDAENALILCKDIVREQGLDMRLVNCEYTLDKSKVIFNFTADDRIDFRKLVKILAQHLKTRIELRQIGVRDEAKLLGGIGPCGRSLCCSTFLGDFEPVSIKMAKDQNLSLNPTKISGACGRLMCCLKYENDYYEEVRAQLPDIGEAIETPDGNGKVVALNILDISMQVKLEGHEQPLEYKLEEIETMHLEHHHHHH” as the sequence, how does the “soluble on expression in E. coli” value read?
**A.** not soluble

**Q.** Which “soluble on expression in E. coli” value does the source give for “MLSPLAKANLCLNLFGFFKVPLIWACRPKILSLNDQAVEVRIPLKRRNKNHLNSMYFGVLAVGADVAGGYMAMHKANQRGKSVSLAFKSVRGEFHKRPEAAVHFHCVEGEKIDRMLDETARTGERVNQEVHIIATCPTLHGDEPMAEFWLTLSLKIVKLEHHHHHH” here?
**A.** soluble

**Q.** Which “soluble on expression in E. coli” value does the source give for “MSSERACMLCGIVQTTNEFNRDGCPNCQGIFEEAGVSTMECTSPSFEGLVGMCKPTKSWVAKWLSVDHSIAGMYAIKVDGRLPAEVVELLPHYKPRDGSGSATIWGVRCRPGKEKELIRKLLKKKFNLDRAMGKKKLKILSIFQRDNYTGRIYIEAPKQSVIEKFCNGVPDIYISQKLLIPVQELPLLLKPNLEHHHHHH” here?
**A.** soluble

**Q.** For “MNNSREDQWLQHYEQQNIQEITPCFNAINIASSSGSSLGDGGAAAHEAAGRRSRASRRAIPTTLLNANPSNFRALVQKFTGRSAGGESNRRKGPVTLDFGSPTTISKEAIFPVSSDRSNNNLDHVVNQHVSNEQRHVTWSGTESMMSYQLGEETNSAVYSSGYDDQDLPREYSGNSSYDESLDHMDYYQDFHRETATLEEFMMRDLDL”, which “soluble on expression in E. coli” value is on record?
**A.** soluble

**Q.** Which “soluble on expression in E. coli” value does the source give for “MIGPISQINISGGLSEKETSSLISNEELKNIITQLETDISDGSWFHKNYSRMDVEVMPALVIQANNKYPEMNLNLVTSPLDLSIEIKNVIENGVRSSRFIINMGEGGIHFSVIDYKHINGKTSLILFEPANFNSMGPAMLAIRTKTAIERYQLPDCHFSMVEMDIQRSSSECGIFSFALAKKLYIERDSLLKIHEDNIKGILSDGKNPLPHDKLDPYLPVTFYKHTQGKKRLNEYLNTNPQGVGTVVNKKNETIVNRFDNNKSIVDGKELSVSVHKKRIAEYKTLLKV” here?
**A.** not soluble

**Q.** For “MGSDKIHHHHHHMALRKNRGSRMQRNVIAMTEPKSLNSEQYRTIRTNIEFASVDRQMKSVMITSACPGEGKSTTAANLAVVFAQQGKKVLLIDADLRKPTVHTAFFLENTVGLTSVLLKKSSMEQAVQASNEKHLDVLTSGPIPPNPAELLSSKWMKELAYEACAAYDMVIFDTPPILAVADAQILGNVADGSVLVISSGKTEKEQAAKAKEALATCKSKLLGAIMNGKKLSKHSEYGYYGTKDNFMQK”, which “soluble on expression in E. coli” value is on record?
**A.** not soluble

**Q.** Which “soluble on expression in E. coli” value does the source give for “MTTHTGGCQCGAVRFRATGDLQDSSICHCRMCQKAFGAYYAPLVSVRNVEFEWTRGEPKRFQSSSVVKRGFCPECGTPLTYEAPDGVAVAAGAFDDPAALPPTIQWGVERKIDFVDTLHTLPAVATEDDLTQVDYLTNLVSYQHPDHDTENWPPEKR” here?
**A.** not soluble

**Q.** With “MSQDPFALLKAEVDLLGRLLGEAIRTLSGERFFALVEEVRALAKARRQGDEAAGEALLARVEGLSTEEAEALVRAFTHYFHLVNLAEERHRVRVNRLRAQAETLESPRPEGFLALAKALKERGLSLEEAEAHLNRLELLLTFTAHPTETRRRTLRHHLEALQRELEAGDRERLAARVALLYGTEEVRKARPTVEDEIKGGLYYLPTTLWEAVPRVVAGLEAALERVYGRRPRLKSPVRFRSWIGGDRDGNPFVTPEVTAFAGRYAREVARRRFLEALEDLVRDLSLAEARVPVPREVRERGEGVERFMGEPYRRYFAALYRALEREEATTEGLLAALKAAERGLREVGLGRVAEAFLDPLEARLSAFGLELAPLDLREESGRLLEAAAELLRVGGVHPDFLALPQEERERLLTEELKTARPLLPVGEAPEGEALRVALGALKAWRDKGAHVVSMTHHPEDLLAVFLLAREVGLYRPGRPLPFDVVPLFETLEDLRRAPGVLRRLLENPVFLAHARGRGGVEVMIGYSDSNKDAGFLMANLALYEAQEALSRVGEEVGLPVYFFHGRGTSTARGGGPAGRAIASLPPRSVGRRIRLTEQGEALADRYSHPDLAVRHLEQMLYHFALAALGPGQEPEARWREALAQAAEESTRRYRALLQEEGFFDFFEAFTPIREIGELPIASRPVYRRGRVRDIRDLRAIPWVMAWTQVRVLLPGWYGLSALEELPLDLLREMYRGWPFFASTLEAAAMALAKADMGVARLYLRLVPEPLRFFYRRLAEEHARTVALLEAVFQAPLLHNQRTLERQIRLRNPYVDPINIVQVELLRRYRAPGGKEDEALRRALLLSILGVAAGLRNAG” as the sequence, how does the “soluble on expression in E. coli” value read?
**A.** soluble

**Q.** With “MAHHHHHHMASADSKAVLLSSQPGATAYSSTVAVKVQAGRMILQDGIVRPLLGSGFLFLLREGLLQDTVLTWVSSDGEEQCRVTLPPGRVKVSWVEKCRPSRVLLFDIDNGKQPLFFWMQSRSDELDEPVMHRIQHAIERNRQQAVAQHGRREIKMGTLQNILSDLWSEALAHDVNLVDILGSEKLLKALQEDPGFYTLRLKDYLPLGELDSGVPLDLKKLMNDRQVQWTAEILGTLLRHETTYSQLSASFLNGTMLWGANVTSFIVSIINIFLPQNEQQQMGESDN” as the sequence, how does the “soluble on expression in E. coli” value read?
**A.** not soluble
